Experimental data taken from patent US20240327502A1 (Merck Sharp & Dohme, published 2024).

How the values were obtained:
[1] = molecular target: T1, F protein of hMPV A virus (human metapneumovirus subtype A); assay: cell-based or functional assay
[2] = molecular target: F protein of hMPV B virus (human metapneumovirus subtype B); assay: cell-based or functional assay
[3] = molecular target: F protein of RSV B/Washington virus (respiratory syncytial virus B, …); assay: cell-based or functional assay
[4] = molecular target: T1, F protein of hMPV A virus; assay: cell-based or functional assay; remark: listed apart in the source
[5] = molecular target: T2, Unprocessed hMPV PreF trimer (human metapneumovirus, strain B2); assay: BLI, mAb on anti-human Fc sensor
T2 construct: also called Unprocessed hMPV WT PreF trimer; unprocessed hMPV PreF trimeric antigen

[6] = molecular target: T3, Processed stabilized hMPV PreF trimer (115BV) (human metapneumovirus, strain B2); assay: BLI, mAb on anti-human Fc sensor
T3 construct: also called Processed hMPV PreF trimer; processed PreF

hMPV PostF trimer = molecular target: T4, hMPV PostF trimer (human metapneumovirus, strain B2); assay: BLI, mAb on anti-human Fc sensor
T4 construct: also called MPV PostF (dPFv1)

[7] = molecular target: T3, Processed stabilized hMPV PreF trimer …; assay: BLI, ratio to unprocessed PreF trimer

| Binder | PRNT IC50 [1] [µg/mL] | PRNT IC50 [2] [µg/mL] | PRNT IC50 [3] [µg/mL] | IC50, hMPV plaque reduction neutralization [4] [µg/mL] | Octet binding response [5] [nm] | Octet binding response [6] [nm] | Octet binding response (hMPV PostF trimer) [nm] | processed/unprocessed PreF trimer binding ratio [7] |
| --- | --- | --- | --- | --- | --- | --- | --- | --- |
| M4B11 (antibody, V domains shown) VH: QVQLVQSGTEVQTPGASVKVSCKTSGYIFTGYFMHWVRQAPGQGFEWMGWVNPYSGATTYAQKFQGRVTMTRDTSISTVYMELSRLTSDDTAIYYCAKDTSNSGPDLLEHWGQGTLVIVSS VL: EIVLTQSPATLSLSPGERATLSCRASQSISNFLVWYQRKPGQAPRLLIFDVSKRATGIPTRFSGSGSGTDFTLTISSLEPEDFAVYYCQQRSNWPPGYTFGQGTKLEIK | 0.652 | 0.238 | – | – | – | – | – | – |
| M3D04 (antibody, V domains shown) VH: EVQLVESGGDLVEPGGSLRLSCAASGFTFESAWMSWVRQAPGKGLEWVGRIKSKLDHGTTDYAAPVKGRFTLSRDDSKNTLFLQMNNLKTEDTGVYYCATDRSDVRFLEWLGNYQFGMDVWGQGTTVAVSS VL: EIVLTQSPGTLSLSPGERATLSCRASHSVSSSYLAWYQQKPGQAPRLLIFGASSRATGIPDRFSGSGSGTDFTLTISRLEPEDFAVYYCQQYLTSPPGWTFGQGTKVEIK | 0.2 | 0.327 | – | – | – | – | – | – |
| M1C7 (antibody, V domains shown) VH: QVQLVESGGGLVQPGRSLRLSCAASGFTFSSYAMHWVRQAPGKGLEWVAIITYDGSGKYYADSLEGRITISRDDPKSMLYLHMRSLTAEDTAVYYCVKSGSFSSAFWLEDWGQGTLVTVSS VL: EIVLTQSPATLSLSPGERATLSCRASQSISNFVAWYQQKPGQAPRLLIYDASNGATGTPARFSGSGSGTDFTLTISSLEPEDFAVYYCQQRSTWTFGQGTKVEIKR | 0.0083 | 0.0085 | 1.1 | – | – | – | – | – |
| M1A08 (antibody, V domains shown) VH: QVQLVQSGAEVKKPGASVKVSCKASGVTLTDYYFHWIRQAPGQALEWMGRINPARGGTHYAEKFEDRVTMTTDTSTNTVYMDLSSLRSDDTAVYYCARSGSTHNIYSGFYAFDHWGQGTLVTVSS VL: not shown | 2.27 | 0.72 | – | – | – | – | – | – |
| M1C7s (antibody, V domains shown) VH: QVQLVQSGPEVRKPGSSVRVSCKASGGTFTRLTITWVRQAPGQGLEWMGRIIPAVDITNYAPKFQGRVTITADKSTGAVYMDLISLTSDDTAIYFCATVLDWSNALDIWGQGTMVTVSS VL: DIVMTQTPLSLSVTPGQPASISCKSSESLLNSDGKTYLFWYLQKPGQSPQVLIYDLSSRFSGVPERFSGSGSGTDFTLKISRVEPEDVGIYYCMQGLHLPWTFGRGTRLEIKR | 0.015 | 0.0092 | – | – | – | – | – | – |
| M2B6 (antibody, V domains shown) VH: QVQLQESGPGLVKPSETLSLTCSVSGASIGGYYWGWIRQPPGKGLEWLGYIYYSGRTVYSPSLRGRLALSLDMSRQQLSLRLRSVAAADTAVYYCASLTITPGWFDSWGPGTLVTVSS VL: QSVLTQPPSVSGAPGQRVTISCTGSSSNIGAGYDVHWYQQFPGSAPKLLIYGNTKRPSGVPDRFSGSTSGSSASLAITGLQTEDEAEYYCQSYERNLDGALFGGGTKLSVL | 0.044 | 0.0237 | 0.0092 | – | – | – | – | – |
| M1D2 (antibody, V domains shown) VH: QVQLQESGPGLVKPSGTLSLTCTVSGGSVNSDHWWTWVRQSPETGLEWIGELNHIGTFNYNPSFKSRATISIDTSKNQFSLTLTSVAAADTAVYYCARRPPPLPEYFYYYFMDVWGNGTTVTVSS VL: DIQMTQSPSSLSASVGDRVTITCRTSQSIRGHINWYQQKPGKGPKLLIYGASSLQSGVPSRFSGSGSGTDFTLTISSLQAEDFATYYCQQSYSNPYSFGRGTKLEIKR | 0.0117 | 0.0124 | – | – | – | – | – | – |
| M4B06 Fab (Fab, V domains shown) VH: EVQLLESGGGFVQPGGSLRLSCVVTGFTFSNYAMCWVRQAPGKGPEWVSGIGGSVGTTYYADSVKGRFTISRDNSKNTLYLQMSGLRAEDTARYYCAKVPSFFVFEDGFDMWGQGTVVTVSS VL: QSVLTQPPSASGNPGQRVTISCYGSGSNIGNNYVHWFRQLPGTAPRLLIYNTDILVPGVPDRFSGSESGTSASLAISGLQSGDEADYFCAAWDDTLNGYVFGPGTTVTVL | – | – | – | 0.076 | – | – | – | – |
| M3A04 (antibody, V domains shown, IgG) VH: QVQLVESGGGVVQPGRSLRLSCAASGLTFSTYVMHWVRQAPGKGLEWVAVISYDGTNEHYADSVKGRFTISRDNSKNTLYLQMNSLRPEDTAVYYCARGTADYDVWSGSAWGGFDYWGQGTLVTVSS VL: DIQMTQSPSSLSASVGDRVTITCRASQSISSYLNWYQQKPGKAPKLLMYTVSSLPSGVPSRFSGSGSGTDFTLTISSLQPEDFATYYCQQSYNIPYTFGQGTKLEIK | – | – | – | – | 0.373 | 0.0846 | -0.0261 | 0.23 |
| M3A12 (antibody, V domains shown, IgG) VH: QVQLQESGPQLVKPSQTLSLTCTVSGDSISSSDYCWSWIRQSPGKGLEWIGHSVYSGDTQYNPSLKSRLSISVDTSKNQFSLRLRSVTAADTAVYYCARGNDFWSGSFDYWGQGALVIVSS VL: DIQMTQSPSSLSASVGDRVTITCRASQSIGTYLNWYQQKPGKAPKVLIYAASSLQSGVPSRFSGRGSGTDFTLTVSSLQPEDFASYYCQQSYTKPYTFGQGTKLEIK | – | – | – | – | 0.31 | 0.0766 | 0.0469 | 0.25 |
| M3D03 (antibody, V domains shown, IgG) VH: QVQLVQSGAEVKKPGASVKVSCKASGYTFTSYGISWVRQAPGQGLEWMGWISAYNGNTNYAQKLQGRVTMTTDTSTSTAYMELRSLRSDDTAVYYCARDAPFGRDDGYGMDVWGQGTTVTVSS VL: not shown | – | – | – | – | 0.242 | 0.0286 | -0.054 | 0.12 |
| M3A03 (antibody, V domains shown, IgG) VH: QVQLVQSGAEVKKPGASVKVSCKASAYTFTSYGITWVRQAPGQGLEWMGWISAYRGNTKYAQKLQGRVTMTTDTSTSTASMELRSLRSDDTAVYYCARTSYYDSSYYPIDYWGQGTLVTVSS VL: SYVLTQPPSVSVAPGQTARITCGGNNIGSKSVQWYQQKPGQAPVLVVYDDSDRPSGIPERFSGSNSGNTATLTISRVEAGDEADYYCQVWDSSGDRVVFGGGTKLTVL | – | – | – | – | 0.181 | 0.0409 | 0.568 | 0.23 |
| M3B04 (antibody, V domains shown, IgG) VH: QVQLQESGPGLVKPSETVSLTCTVSGGSISSNNWWSWVRQSPGKGLEWIGEIYHSGSTNFNPSLKSRVTISVDKSKNHFSLKLGSLTAADTAVYYCARRPNDYGDYSYYYYYYMDVWGKGTTVTVSS VL: EIVLTQSPATLSLSPGESATLSCRASQSINRNLAWYQQKPGQAPRLLIYDASNRATGIPARFSGSGSGTDFTLTISSLEPEDFAVYYCQQRSHWVTFGQGTRLEIK | – | – | – | – | 0.177 | 0.0297 | 0.446 | 0.17 |
| M3B12 (antibody, V domains shown, IgG) VH: QVQLVESGGGVVQPGGSLRLSCAASGFTFSSYGMHWVRQAPGKGLEWVAFIRYDGSNKYYADSVKGRFTISRDNSKNTLYLQMNSLRAEDTAVYYCAKDSGSYYYYYYMDVWGKGTTVTVSS VL: not shown | – | – | – | – | 0.157 | 0.0102 | 0.417 | 0.07 |
| M2B04 (antibody, V domains shown, IgG) VH: QVQLVQSGPEVKKPGASVKVSCKASGYSITTYGIDWVRQAPGQGLEWIGWSSAHTGNTNYAEKFQGRVTMTTDTSTYTTYMELRSLKSDDTAVYYCAMGAYTSSRNWFDPWGQGTLVIVSS VL: EIVLTQSPATLSLSPGERATLSCRASQNINNFLAWYQQKAGQAPRLLIYDASNRATGIPGRFSGSGSGTDFTLTISSLEPEDFAVYYCQQRANWPLTFGGGTKVEVK | – | – | – | – | 0.328 | 0.125 | 0.0152 | 0.38 |
| M2D02 (antibody, V domains shown, IgG) VH: QVQLVQSGAEVKKPGSSVKVSCKASGGTLTRYTISWVRQAPGQGLEWMGRIIPFLDIANYAPRFQGRVTMTADKSTSTAYMELSSLTSQDTAIYYCARDHSGNYFDLWGQGTLVTVSS VL: EIVMTQSPATLSVSPGERATLSCRASQSVTSNLAWYQRKPGQAPRLLIYGASTGATDIPGRFSGSGSGTEFTLTISGLQSEDFAVYYCQQYDHWPRTFGQGTKVEIK | – | – | – | – | 0.216 | 0.0468 | 0.541 | 0.22 |
| M2E07 (antibody, V domains shown, IgG) VH: EVQLVESGGGLVQTGGSLRLACAASGFTFSSYAMSWVRQAPGKGLEWVSTITESGDDAYYADSVKGRLTISRDNSKNTLFLHLNGLRSEDTARYYCAKDMGLYKSSWYGNFFYYYYMDVWGEGTTVTVSS VL: QSALTQPASVSGSPGQSITISCTGSSSNIGSFDLISWYQQHPGKAPKFIIYEGDKRPSGVSYRFSGSKSGSTASLTISGLQAEDEAYYYCCSYARSRTLVFGGGTKVTVL | – | – | – | – | 0.216 | 0.0476 | 0.0137 | 0.22 |
| M3E09 (antibody, V domains shown, IgG) VH: EVQLVESGGGVVRPGGSLRLSCAASGFRFDDYAMNWVRQAPGKGLEWVSGINWIGGTTKYADSVKGRFTISRDNTKNSLYLQMNSLRAEDTALYYCARGVGYYYYYMDVWGRGTTVTVSS VL: EIVLTQSPGTLSLSPGERATLSCRATQSVSSNYLAWYQQKPGQAPRLLIYDASSRAIGIPDRFSGSGSGTDFTLTISRLESEDFAVYYCQQYGSSPETFGQGTKVEIK | – | – | – | – | 0.226 | 0.0948 | -0.0506 | 0.42 |
